Test results as given in paper PMC7608808 (Science Advances, 2020).
Substitutions are numbered along the chain they refer to. Names may count otherwise. Like-named read-outs stand apart in the source and are kept apart here.

B1: SugC (natural protein)
chain: MAEIVLDRVTKSYPDGAGGVRAAVKEFSMTIADGEFIILVGPSGCGKSTTLNMIAGLEEITSGELRIGGERVNEKAPKDRDIAMVFQSYALYPHMTVRQNIAFPLTLAKVPKAEIAAKVEETAKILDLSELLDRKPGQLSGGQRQRVAMGRAIVRSPKAFLMDEPLSNLDAKLRVQMRAEISRLQDRLGTTTVYVTHDQTEAMTLGDRVVVMLAGEVQQIGTPDELYSSPANLFVAGFIGSPAMNFFPATRTDVGVRLPFGEVTLTPHMLDLLDKQARPENIIVGIRPEHIEDSALLDGYARIRALTFSVRADIVESLGADKYVHFTTEGAGAESAQLAELAADSGAGTNQFIARVSADSRVRTGEQIELAIDTTKLSIFDAATGLNLTRDITPTDPTEAAGPDAG
B2: SugC (E164Q) (natural protein)
chain: B1 chain with E164Q

Tests used:
cryo-EM structure [1] = target: the molecule itself; assay: cryo-EM structure
cryo-EM structure [2] = target: the molecule itself; assay: cryo-EM structure; remark: listed apart in the source

| Protein | binding result (cryo-EM structure [1]) | binding result (cryo-EM structure [2]) |
| --- | --- | --- |
| B1 | binds | – |
| B2 | – | binds |
